The labels stand for the following.
T1: human ferroportin (SLC40A1) fused in frame with GFP, stably expressed in HEK293 cells (human, UniProt Q9NP59 1-571)
T1 sequence (looked up): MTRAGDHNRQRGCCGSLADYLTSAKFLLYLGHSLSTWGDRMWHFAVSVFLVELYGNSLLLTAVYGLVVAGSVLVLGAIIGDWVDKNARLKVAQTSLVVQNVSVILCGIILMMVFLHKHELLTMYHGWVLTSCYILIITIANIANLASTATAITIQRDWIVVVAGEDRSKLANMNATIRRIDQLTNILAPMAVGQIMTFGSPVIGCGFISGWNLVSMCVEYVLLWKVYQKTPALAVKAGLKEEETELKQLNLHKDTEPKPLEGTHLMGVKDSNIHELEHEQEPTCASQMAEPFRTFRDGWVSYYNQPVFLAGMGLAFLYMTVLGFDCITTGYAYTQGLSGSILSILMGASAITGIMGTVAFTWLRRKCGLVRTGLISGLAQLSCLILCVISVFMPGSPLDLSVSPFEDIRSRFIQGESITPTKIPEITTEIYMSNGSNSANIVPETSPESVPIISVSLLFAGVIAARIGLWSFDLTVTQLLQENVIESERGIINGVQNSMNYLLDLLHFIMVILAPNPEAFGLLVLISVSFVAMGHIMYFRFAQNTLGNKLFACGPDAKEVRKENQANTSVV

B1: Isovaleric Acid-E-T-H-[Dpa]-P-A-I-[Lys(2PEG4_Palm)]-[bhPhe]-NH2 (peptide)
peptide: Isovaleryl-ETH[Dip]PAIK([PEG4-Palmitoyl])[β3hF]-NH2
SMILES: CCCCCCCCCCCCCCCC(=O)NCCOCCOCCOCCOCCC(=O)NCCCC[C@H](NC(=O)[C@@H](NC(=O)[C@H](C)NC(=O)[C@@H]1CCCN1C(=O)[C@@H](NC(=O)[C@H](Cc1c[nH]cn1)NC(=O)[C@@H](NC(=O)[C@H](CCC(=O)O)NC(=O)CC(C)C)[C@@H](C)O)C(c1ccccc1)c1ccccc1)[C@@H](C)CC)C(=O)N[C@H](CC(N)=O)Cc1ccccc1
B2: Ac-[Lys(Ahx_Palm)]-T-H-[Dpa]-P-A-I-[(D)Lys]-[bhPhe]-NH2 (peptide)
peptide: Ac-K([Ahx-Palmitoyl])TH[Dip]PAI[dK][β3hF]-NH2
SMILES: CCCCCCCCCCCCCCCC(=O)NCCCCCC(=O)NCCCC[C@H](NC(C)=O)C(=O)N[C@H](C(=O)N[C@@H](Cc1c[nH]cn1)C(=O)N[C@H](C(=O)N1CCC[C@H]1C(=O)N[C@@H](C)C(=O)N[C@H](C(=O)N[C@H](CCCCN)C(=O)N[C@H](CC(N)=O)Cc1ccccc1)[C@@H](C)CC)C(c1ccccc1)c1ccccc1)[C@@H](C)O

Starred links: 1 amine or outer side, 2 acyl side, 3 side chain; linkers in the order of their positions; H or OH if unused. Non-standard residues stand in square brackets, D forms with d. Groups on a side chain read outwards from the residue. Primed or numbered codes have the meaning given here. *: point of attachment. N‑(CH2CH2C(Ph)2H)Gly = N-substituted glycine carrying a 3,3-diphenylpropyl group, O=C(CN(CCC(c1ccccc1)c1ccccc1)[*:1])[*:2]; ButanoicP = (R)-4-(pyrrolidin-2-yl)butanoic acid, O=C(CCC[C@@H]1CCCN1[*:1])[*:2]; Dip = N[C@H](C(=O)O)C(c1ccccc1)c1ccccc1; N(isopentyl)Gly′ = not defined here; Palmitoyl = CCCCCCCCCCCCCCCC(=O)*; β3hF = N[C@H](CC(=O)O)Cc1ccccc1; PEG4 = NCCOCCOCCOCCOCCC(=O)O; Isovaleryl = CC(C)CC(=O)*; Ahx = NCCCCCC(=O)O

Consider 14 molecules from patent US20240066131A1 (Protagonist Therapeutics, Inc., priority 2020, published 2024).

The first experiment deals with T1, human ferroportin (SLC40A1) fused in …. Briefly: cell-based or functional assay.
In the case of B1, the “FPN EC50” value was 32.7 nM.

Regarding Isovaleryl-[N‑(CH2CH2CH2CO2H)Gly]TH[Dip]PAIK([Ahx-Palmitoyl])[β3hF]-NH2 [Isovaleric Acid-[N-(CH2CH2CH2CO2H)Gly]-T-H-[Dpa]-P-A-I-[Lys(Ahx_Palm)]-[bhPhe]-NH2], the “FPN EC50” value came out at 202 nM.

Take Isovaleryl-ETH[Dip]PAIK([Ahx-Palmitoyl])[N‑(CH2CH2Ph)Gly]-NH2 [Isovaleric Acid-E-T-H-[Dpa]-P-A-I-[Lys(Ahx_Palm)]-[N-(CH2CH2Ph)Gly]-NH2]: the “FPN EC50” value is 31.9 nM.

On to Isovaleryl-ETH[Dip]PA[N(isopentyl)Gly′]K([Ahx-Palmitoyl])[β3hF]-NH2 [Isovaleric Acid-E-T-H-[Dpa]-P-A-[N-(isopenty1)Gly]-[Lys(Ahx_Palm)]-[bhPhe]-NH2], for which the “FPN EC50” value was 13 nM.

On to {3,3,3‑Trifluoro propionic acid}-ETH[Dip]PIIK(Ac)[β3hF]-NH2 [[3,3,3-Trifluoro propionic acid]-E-T-H-[Dpa]-P-I-I-[Lys(Ac)]-[bhPhe]-NH2], for which the “FPN EC50” value was 5740 nM.

Regarding Isovaleryl-ETH[Dip][ButanoicP]K([Ahx-Palmitoyl])[β3hF]-NH2 [Isovaleric Acid-E-T-H-[Dpa]-[ButanoicP]-[Lys(Ahx_Palm)]-[bhPhe]-NH2], the “FPN EC50” value came out at 20.5 nM.

With Isovaleryl-ETH[N‑(CH2CH2C(Ph)2H)Gly]PAIK([Ahx-Palmitoyl])[β3hF]-NH2 [Isovaleric Acid-E-T-H-[N-(CH2CH2C(Ph)2H)Gly]-P-A-I-[Lys(Ahx_Palm)]-[bhPhe]-NH2], the “FPN EC50” value was greater than 3000 nM.

For the molecule {Isophthalic Acid}-ETH[Dip]PIIK(Ac)[β3hF]-NH2 [[Isophthalic Acid]-E-T-H-[Dpa]-P-I-I-[Lys(Ac)]-[bhPhe]-NH2], the “FPN EC50” value is greater than 5000 nM.

For the molecule Isovaleryl-E[N‑(CH2CH2OH)Gly]H[Dip]PAIK([Ahx-Palmitoyl])[β3hF]-NH2 [Isovaleric Acid-E-[N-(CH2CH2OH)Gly]-H-[Dpa]-P-A-I-[Lys(Ahx_Palm)]-[bhPhe]-NH2], the “FPN EC50” value turned out to be 2230 nM.

Consider {(3-Trifluoromethyl)butyric acid}-ETH[Dip]PIIK(Ac)[β3hF]-NH2 [[(3-Trifluoromethyl)butyric acid]-E-T-H-[Dpa]-P-I-I-[Lys(Ac)]-[bhPhe]-NH2], for which the “FPN EC50” value was determined as 2080 nM.

With Isovaleryl-ETH[Dip]P[N(Et)Gly]IK([Ahx-Palmitoyl])[β3hF]-NH2 [Isovaleric Acid-E-T-H-[Dpa]-P-[N-(Et)Gly]-I-[Lys(Ahx_Palm)]-[bhPhe]-NH2], the “FPN EC50” value came to 65.9 nM.

As to Isovaleryl-[dE]TH[Dip]PIIK(Ac)[β3hF]-NH2 [Isovaleric Acid-[(D)Glu]-T-H-[Dpa]-P-I-I-[Lys(Ac)]-[bhPhe]-NH2], the “FPN EC50” value was 1450 nM.

Take Isovaleryl-ET[N‑(CH2CH2-imidazol4-yl)Gly][Dip]PAIK([Ahx-Palmitoyl])[β3hF]-NH2 [Isovaleric Acid-E-T-[N-(CH2CH2-imidazol4-yl)Gly]-[Dpa]-P-A-I-[Lys(Ahx_Palm)]-[bhPhe]-NH2]: the “FPN EC50” value was greater than 3000 nM.

The target is the same in another experiment. Briefly: cell-based or functional assay. This is another data set of the same source.
For the molecule B2, the “FPN IC50” value was greater than 3000 nM.
